Source: patent US11059903B2, “Anti-PSMA antibodies, uses thereof and conjugates thereof” (Polytherics Limited, priority 2016, dated 2021)

Assay: Heat stress test, aggregation analysed by SEC
Assay type: physicochemical
Settings: for Ab in aggregated form (%) / Ab in native conformation (%): post stress test: 0.5 mg/mL in PBS, 75° C. for 30 min, SEC % area
Description: Antibody samples (0.5 mg/mL in PBS) were incubated at 75° C. for 30 min followed by incubation in an ice-bath for 5 min prior to being analysed for their extent of aggregation. Analysis of antibody solutions was carried out by Size Exclusion Chromatography (SEC) and by turbidity measurements.
SEC was performed using a TOSOH Bioscience TSK gel Super SW 3000 column. UV absorbance at 280 nm was monitored during an isocratic elution with a 0.2 M Potassium phosphate buffer, pH 6.8 (0.2 M potassium chloride and 15% isopropanol). The elution times and number of peaks indicate whether the sample contains aggregated, degraded or native antibody. The % area under the curve (Abs280) was used to determine the quantity of each species present in the SEC analysis.

Molecule	Ab in aggregated form (%)	Ab in native conformation (%)	Stability compared with AB-02 to AB-06 antibodies (heat stress test, in words)
AB-03: Humanised anti-PSMA antibody, heavy chain SEQ ID No 7, light chain SEQ ID No 8 (antibody, V domains shown) VH: EVQLVQSGAEVKKPGASVKVSCKASGYTFTEYTIHWVRQAPGKGLEWIGNINPNNGGTTYNQKFEDRVTITVDKSTSTAYMELSSLRSEDTAVYYCAGGWTFDYWGQGTTVTVSS VL: DIQMTQSPSTLSASVGDRVTITCKASQDVGTAVDWYQQKPGQAPKLLIYWASTRHTGVPDRFSGSGSGTDFTLTISRLQPEDFAVYYCQQFTRYPLTFGQGTKVDIK	64	36	–
AB-05: Humanised anti-PSMA antibody, heavy chain SEQ ID No 5, light chain SEQ ID No 10 (antibody, V domains shown) VH: EVQLVQSGAEVKKPGASVKVSCKASGYTFTEYTIHWVRQAPGKGLEWIGNINPNNGGTTYNQKFEDRVTITVDKSTSTAYMELSSLRSEDTAVYYCAAYWLFDYWGQGTTVTVSS VL: DIQMTQSPSTLSASVGDRVTITCKASQDVGTAVDWYQQKPGQAPKLLIYWASTRHTGVPDRFSGSGSGTDFTLTISRLQPEDFAVYYCQQYNAYSLTFGQGTKVDIK	98	2	–
AB-04: Humanised anti-PSMA antibody, heavy chain SEQ ID No 9, light chain SEQ ID No 8 (antibody, V domains shown) VH: EVQLVQSGAEVKKPGASVKVSCKASGYTFTEYTIHWVRQAPGKGLEWIGNINPNNGGTTYNQKFEDRVTITVDKSTSTAYMELSSLRSEDTAVYYCAGAWTMDYWGQGTTVTVSS VL: DIQMTQSPSTLSASVGDRVTITCKASQDVGTAVDWYQQKPGQAPKLLIYWASTRHTGVPDRFSGSGSGTDFTLTISRLQPEDFAVYYCQQFTRYPLTFGQGTKVDIK	73	27	–
AB-09: Prior art anti-PSMA antibody, heavy chain SEQ ID No 15, light chain SEQ ID No 16 (antibody, V domains shown) VH: MELGLRWVLLVALLRGVQCQVQLVESGGGVVQPGRSLRLSCAASGFTFSNYVMHWVRQAPGKGLEWVAIIWYDGSNKYYADSVKGRFTISRDNSKNTLYLQMNSLRAEDTAVYYCAGGYNWNYEYHYYGMDVWGQGTTVTVSS VL: MRVPAQLLGLLLLCFPGARCDIQMTQSPSSLSASVGDRVTITCRASQGITNYLAWFQQKPGKAPKSLIYAASSLQSGVPSKFSGSGSGTDFSLTISSLQPEDFATYYCQQYNSYPITFGQGTRLEIK	100	0	less stable
